Experimental data taken from patent US20150351390A1, “COMPOSITIONS AND METHODS FOR AUXIN-ANALOG CONJUGATION” (PIONEER HI-BRED INTERNATIONAL, INC., priority 2012, published 2015).

B1: SbEES01578: GH3 protein, accession EES01578 (protein)
chain: MPEAPTTKTTLPAGGFGPGAHREALEFIEHVTANAGKVQRRVLAEILTQNAPAEYLRRYGVPGGSADAVEAFRRVVPLVTYEGLQPDILRIASGDTSPILSGKPISEFLTSSGTSGGERKLMPTIADELDRRSLLYSLQMPVMSQSVPGLDKGKAMYLLFVKAESRTPGGLVARPVLTSYYRSRQFLERPHDPYTEYTSPNEAILCVDSYQSMYTQLLCGLVHRADVLRVGAVFASGFLRAVRFLEKHWPRLCRDIRTGTLDPEITDRAVRDAVVGRVLRGANPALADEIEAECAGPSWEGIIRRLWPRTKYIDVIVTGAMSQYIPTLEFYGGGLPLACTMYASSECYFGLNLKPMCKPGDVAYTLIPTMCYFEFLPLQCSDGKAEPSHRDLVGLVDVKLGHEYELVVTTYSGLYRYRVGDVLRVAGFKNEAPMFKFIRRQNVALSIDSDKTDETELHAAVSGAVQHLAPFGASLVEYTSYADAATIPGHYVLFWELRAGSTAVPASVFEDCCLSVEEALNSVYRQCRACDKSIGPLEIRVVSEGTFDKLMDYAISRGASINQYKAPRCVRPGPVVELLDARVQAKYFSPKCPKWSPGNKQWNAASNGDA
modifications: Sorghum bicolor
B2: ZmACI46148: GH3 protein, accession ACI46148 (protein)
chain: MAVMAEVVSTTGAALRSPASQPLPAAVKNADAEKLQFIEEMTSNVDAVQERVLGEILARNAGTEYLAKYGLAAATTDRATFRAKVPMATYEDLQPYIRRIADGDRSPILSGHPVSEFLTSSGTSAGERKLMPTIEDELNRRQLLYSLQMPVMNLYVPGMDKGKALHFLFVKSETKTPGGLAARPVLTSYYKSNHFKNRPFDAYNNYTSPTAAILCADAFQSMYAQMLCGLCQRQDVLRVGAVFASGLLRAIRFLQLNWEQLAEDIEAGSLTPRVTDPSVREAVAGILRADPELAALVRSECSKGDWAGIITRIWPSTKYLDVIVTGAMAQYIPTLKYYSGGLPMACTMYASSECYFGLNLRPMCDPSEVSYTLMPNMCYFEFLPMDSAAASGGDASKLVDLARVEVGREYELVITTYAGLNRYRVGDVLQVTGFHNTAPQFRFVRRKNVLLSIESDKTDEAELQRAVERASALLRPHGAAVVEYTSQAYTKSIPGHYVIYWELLAKGPAGGAAVGEGTLERCCLEMEEALNTVYRQSRVADGSIGPLEIRVVRPGTFEELMDYAISRGASINQYKVPRCVTFPPIIELLDSRVVSSHFSPALPHWTPGQRSDSD
modifications: Zea mays
B3: OsGH3-8: GH3 protein, accession Q0D4Z6 (protein, listed as Oryza sativa)
chain: MAVMTDVSTTGTALRTPAAGAVKEGDVEKLRFIDEMTTNVDAVQERVLGEILGRNAGTEYLTKCGLDGATDRAAFRAKVPVVSYDDLQPYIQRIANGDRSPILSTHPVSEFLTSSGTSAGERKLMPTIMDELDRRQLLYSLLMPVMNLYVPGLDKGKGLYFLFVKSETKTPGGLTARPVLTSYYKSDHFKNRPYDPYHNYTSPTAAILCADAFQSMYAQMVCGLCQRNDVLRLGAVFASGLLRAIRFLQLNWEQLADDIESGELTPRVTDPSVREAVAAILLPDPELAKLIRAECSKGDWAGIITRVWPNTKYLDVIVTGAMAQYIPTLEFYSGGLPMACTMYASSECYFGLNLRPMCDPSEVSYTIMPNMGYFEFLPVDETGAASGDATQLVDLARVEVGREYELVITTYAGLNRYRVGDVLRVTGFHNAAPQFRFVRRKNVLLSIESDKTDEAELQRAVERASALLRPHGASVVEYTSQACTKRIPGHYVIYWELLTKGAGATVVDADTLGRCCLEMEEALNTVYRQSRVADGSIGPLEIRVVRPGTFEELMDYAISRGASINQYKVPRCVTFPPIVELLDSRVVSSHFSPALPHWTPARRSE
B4: SbEES01517: GH3 protein, accession EES01517 (protein)
chain: MAPMATAAAAAAVGRVTALGVAACERDVEKLEFIEDKTKNFDAEQVRVLAEILARNNGAEYLRRHGMEGRTDRQAFKARVPVVTYEDLRPEIDRIANGDRSNIISSHPITEFLTSSGTSAGERKLMPTIEDELNRRQMLYSLLMPVMNLYVPGLDKGKGLYFLFIKSETKTPGGLPARPVLTSYYKSDHFKHRPYDPYNVYTSPTAAILCTDSFQSMYSQMLCGLVARTEVLRVGAVFASGLLRAIRFLQLHWKELAHDLRTGTLSARVVEPSIRDAVAEVLTKPDAGLADLVEAECGKDNWEGIITRVWPNTKYLDVIVTGAMAQYIPTLKYYSGGLPMACTMYASSECYFGLNLRPMCDPSEVSYTIMPNMGYFELLPHDPEDKPAVSSSSAASAMDHDRLLVDLADAEVGKEYELVITTYAGLCRYRVGDILHVTGFHNAAPQFRFVRRKNVLLSIDSDKTDEAELQSAVERASRLLAPYDARIVEYTSQADATTIPGHYVVYWELMVRDGGASPEPDVFERCCLEMEEALNAVYRQGRNGDAIGPLEIRVVRGGTFEEVMDYAISRGASINQYKAPRCVSFGPIIELLNSRVVSRHFSPACPTYSPHKK
modifications: Sorghum bicolor
B5: OsGH3-4: GH3 protein, accession AAU90225 (protein, listed as Oryza sativa)
chain: MPEAVAAAVSPAAAAATAMCAEHREKLEHIERVTRNAGQEQRRVLEEILAQNAQAEYLRRLGVPGDAPGADEAFRRLAPLVTYEDILPDVLRIANGDTSPILSGKPVSEFLTSSGTSGGERKLMPTIEEEMERRSGLYSLLMPVMSRQVPGLDKGKAMYLYFVKSEWRTPGGLPARPVLTSFYRSRYFLERPHDPYTVYTSPDEAVLCEDAYQSMYAQLICGLVHRADVLRVGAVFASGFLRAIRFLEKHWPSLCRDIRAGELDGGVTDPAVRGAVGRVLRGADPALADAIEAECARPSWQGIIRRVWPSTKYIDVIVTGAMAQYIPTLEFYGGGLPLACTMYASSECYFGLNLNPMCKPSEVAYTLIPTMCYFEFLPVNSGANDVAAPEPDHRGLVDLVDVKLGHEYELVVTTYSGLYRYRVGDVLRVAGFKNAAPMFAFVRRKNVALSIDSDKTDEAELHAAVTEAVQHLAPFGASLVEYTSYADTATTIPGHYVLFWELRSPAGGTPVPASVFEDCCLAVEEGLNSVYRQCRAADRSIGPLEIRVVADGTFDKLMDYALSRGASINQYKAPRCVRPGPVVELLDGRVQATYFSPKCPKWCAGGNKQWISSGAAAKKTTTTCDSLAV
B6: SbEER99639: GH3 protein, accession EER99639 (protein)
chain: MAVMAEVVSTTGAALRSPASQPPPPPAAAAVKDADAEKLQFIEEMTSNVDAVQERVLGEILARNADTEYLAKYGITGASDRATFRAKVPMATYEDLQPYIRRIADGDRSPILSGHPVSEFLTSSGTSAGERKLMPTIEDELNRRQLLYSLQMPVMNLYVPGMDKGKALHFLFVKSETKTPGGLAARPVLTSYYKSNHFKNRPFDAYNNYTSPTAAILCADAFQSMYAQMVCGLCQRQDVLRVGAVFASGLLRAIRFLQLNWEQLADDIESGSLTPRITDPSVREAVAGILRPDPELASLVRSECSKGDWAGIITRIWPNTKYLDVIVTGAMAQYIPTLKYYSGGLPMACTMYASSECYFGLNLRPMCDPSEVSYTLMPNMCYFEFLPMDAAASGGGDASQLVDLARVEVGREYELVITTYAGLNRYRVGDVLQVTGFHNTAPQFRFVRRKNVLLSIESDKTDEAELQRAVERASALLRPHGAAVVEYTSQAYTKSIPGHYVIYWELLTKGPAAGAGAAVDRETLDRCCLEMEEALNTVYRQSRVADGSIGPLEIRVVRPGTFEELMDYAISRGASINQYKVPRCVTFPPIIELLDSRVVSTHFSPALPHWTPGQRSHSD
modifications: Sorghum bicolor
B7: SbEES19769: GH3 protein, accession EES19769 (protein)
chain: MPEAPVTTMREAATAAAAAAVPETHRELLEYIERVTAGAAQVQRRVLAEILAQNAPAEYLRRLGVAGDAPGAVDAFRRAAPLVTYEDILPDVLRIANGDTSPILSGKPIREFLTSSGTSGGERKLMPAIADEMDRRSLLYSLLMPVMSQAVPGLDKGKCMYLYFVKAESRTPGGHPARPVLTSFYRSRHFLERPHDPYTVYTSPDEAILCVDAYQSMYAQLLCGLVHRADVLRVGAVFASGFLRAIRFLEKHWQRLCRDIRTGTLDAEAVTDRAVRAAVEQRVLLRADPALADAVEAECARTSWQGIIRRVWPNTKYIDVIVTGAMAQYIPQLEFYGGGLPLTCTMYASSESYFGINLNPMCKPSEVAYTLIPTMCYFEFLPLPQPGDDDAGEPDQRDLVDLVDVKLGHEYELVVTTYSGLYRYRVGDVLRVAGFKNQAPMFNFLRRKNVVLSIDADKTDEAELHAAVSGAVQHLAPFGASLVEYTSYADAGTIPGHYVLFWELRLRAAAAAGATPTPVPASVFEDCCLAVEEALNSVYRQGRAADRSIGPLEIRVVSDGTFDKLMDYALARGASINQYKAPRCVRPGPVVELLDGRVQASYFSPKCPKWSPGVGKQWSSDAAAAAKKAAAGGSNGGGGGGGAVVVA
modifications: Sorghum bicolor

Legend:
[1] = LC-MS assay of GH3 conjugation of IAA with Asp or Glu; type: biochemical; conditions: for kcat (hrs−1) IAA-Asp: conjugation of IAA with Asp by recombinant GH3 protein, IAA-Asp product by LC-MS; for kcat (hrs−1) IAA-Glu: conjugation of IAA with Glu by recombinant GH3 protein, IAA-Glu product by LC-MS
Procedure, shortened: (§1)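 Amino acid conjugates of IAA, 2,4-D or dicamba measured by LC-MS against conjugate standards, with kinetic parameters fitted to Michaelis-Menten initial velocities. Reactions: 5 mM each of auxin, ATP and Asp or Glu with 44 to 164 μg/mL purified His-tagged GH3 (E. coli-expressed), pH 8.0 Tris, 5 mM MgCl2, 1 mM DTT, 30 °C for 3 h.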

[2] = LC-MS assay of GH3 conjugation of 2,4-D with Asp or Glu; type: biochemical; conditions: 5 mM 2,4-D substrate; for kcat (hrs−1) 2,4-D-Asp: conjugation of 2,4-D with Asp by recombinant GH3 protein, 2,4-D-Asp product by LC-MS; for kcat (hrs−1) 2,4-D-Glu: conjugation of 2,4-D with Glu by recombinant GH3 protein, 2,4-D-Glu product by LC-MS
Procedure, shortened: as §1

Molecule | kcat (hrs−1) IAA-Asp [1] | kcat (hrs−1) IAA-Glu [1] | kcat (hrs−1) 2,4-D-Asp [2] | kcat (hrs−1) 2,4-D-Glu [2]
B1 | 4419.692 h⁻¹ | 162.572 h⁻¹ | 0.765 h⁻¹ | 0.250 h⁻¹
B2 | 869.016 h⁻¹ | 49.496 h⁻¹ | 2.278 h⁻¹ | 0.401 h⁻¹
B3 | 578.598 h⁻¹ | 28.361 h⁻¹ | 2.917 h⁻¹ | 0.368 h⁻¹
B4 | 855.770 h⁻¹ | 80.034 h⁻¹ | 0.953 h⁻¹ | 0.426 h⁻¹
B5 | 919.336 h⁻¹ | 17.854 h⁻¹ | 2.002 h⁻¹ | 0.254 h⁻¹
B6 | 651.991 h⁻¹ | 31.110 h⁻¹ | 2.476 h⁻¹ | 0.457 h⁻¹
B7 | 903.124 h⁻¹ | 50.990 h⁻¹ | 18.287 h⁻¹ | 4.970 h⁻¹
